Test results published in PMC7060403 (Journal of molecular biology, 2019).

Molecular target: T1, RavP-C (C-terminal region of the rabies virus phosphoprotein, residues 140-297) (rabies virus, UniProt P22363 140-297)
T1 sequence: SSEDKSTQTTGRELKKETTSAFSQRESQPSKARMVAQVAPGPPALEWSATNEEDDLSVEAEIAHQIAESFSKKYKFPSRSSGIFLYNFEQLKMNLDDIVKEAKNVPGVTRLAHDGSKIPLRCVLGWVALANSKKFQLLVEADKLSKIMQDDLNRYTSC
Test: ITC

B1: LC8 from Drosophila melanogaster (natural protein, UniProt Q24117 1-89, looked up)
chain: MSDRKAVIKNADMSEEMQQDAVDCATQALEKYNIEKDIAAYIKKEFDKKYNPTWHCIVGRNFGSYVTHETRHFIYFYLGQVAILLFKSG
B1 showed a Kd of 4.19 µM.
